From PMC4394351 come the findings set out here.

For the assay, the target named is GFP-tagged human PPP1R15A (GFP-hR15A) (human) (UniProt O75807). Put plainly: co-IP; as a5, then three washes in GFP-Trap lysis buffer with additional NaCl; 350 mM salt.
Chain of UniProt O75807 (O75807 whole entry): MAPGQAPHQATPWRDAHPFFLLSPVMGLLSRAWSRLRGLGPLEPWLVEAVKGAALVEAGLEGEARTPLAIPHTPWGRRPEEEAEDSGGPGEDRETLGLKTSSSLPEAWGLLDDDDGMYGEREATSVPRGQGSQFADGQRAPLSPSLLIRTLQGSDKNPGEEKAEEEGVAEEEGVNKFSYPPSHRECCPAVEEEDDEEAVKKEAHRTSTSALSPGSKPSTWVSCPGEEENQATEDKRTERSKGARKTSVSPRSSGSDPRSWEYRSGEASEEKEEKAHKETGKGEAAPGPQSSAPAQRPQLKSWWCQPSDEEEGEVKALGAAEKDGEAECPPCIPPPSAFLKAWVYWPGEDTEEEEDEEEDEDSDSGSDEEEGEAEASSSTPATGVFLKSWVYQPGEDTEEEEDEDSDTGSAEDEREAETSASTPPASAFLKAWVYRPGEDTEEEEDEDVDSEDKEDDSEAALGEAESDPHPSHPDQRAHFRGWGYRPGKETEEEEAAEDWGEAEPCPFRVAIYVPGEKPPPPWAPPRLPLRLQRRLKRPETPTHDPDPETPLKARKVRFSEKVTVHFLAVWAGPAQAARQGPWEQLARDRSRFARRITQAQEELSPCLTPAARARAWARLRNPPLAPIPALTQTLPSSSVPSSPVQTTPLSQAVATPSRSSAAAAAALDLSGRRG

“actin (endogenous, HEK293T cells) (from UniProt P60709 1-375) (natural protein)”: the percent of the actin bound at 150 mM salt that was lost at 350 mM turned out to be 75%.
